Paper PMC12319226 (Frontiers in Bioinformatics, 2025)
Residue numbers refer to the chain shown, from its start.

T1: fHbp m001690 (Neisseria meningitidis, engineered fHbp …, point mutant)
T1 chain: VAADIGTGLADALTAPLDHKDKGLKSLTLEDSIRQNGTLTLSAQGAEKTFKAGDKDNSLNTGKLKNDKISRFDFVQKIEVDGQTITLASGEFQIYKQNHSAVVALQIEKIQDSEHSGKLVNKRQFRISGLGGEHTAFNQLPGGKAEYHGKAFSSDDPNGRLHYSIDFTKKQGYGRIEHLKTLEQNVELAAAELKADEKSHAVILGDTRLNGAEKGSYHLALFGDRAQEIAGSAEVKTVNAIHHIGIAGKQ

T2: fHbp m002336 (Neisseria meningitidis fHbp v3.28, …, chimera)
T2 chain: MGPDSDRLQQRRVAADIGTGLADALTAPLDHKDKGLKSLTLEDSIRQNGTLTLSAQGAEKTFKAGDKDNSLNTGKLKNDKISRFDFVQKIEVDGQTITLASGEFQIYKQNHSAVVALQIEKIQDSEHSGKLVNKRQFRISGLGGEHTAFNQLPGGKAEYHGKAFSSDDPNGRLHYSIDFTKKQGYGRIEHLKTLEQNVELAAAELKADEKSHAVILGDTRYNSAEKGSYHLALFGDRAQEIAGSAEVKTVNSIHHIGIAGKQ

T3: fHbp m002404 (Neisseria meningitidis fHbp v3.28, …, chimera)
T3 chain: T2 chain with S223G, V250G, N251E, S252G

T4: fHbp m002419 (Neisseria meningitidis fHbp v3.28, …, chimera)
T4 chain: T2 chain with S223G, N251V, S252G

T5: fHbp m001180 (Neisseria meningitidis fHbp v3.28-based …, point mutant)
T5 chain: T2 chain with Y221L, N222G, S223G, T249S, N251V, S252A

T6: fHbp m001199 (Neisseria meningitidis fHbp v3.28-based …, point mutant)
T6 chain: T2 chain with Y221L, N222G, S223G, N251E, S252G

T7: fHbp m001524 (Neisseria meningitidis, fHbp …, point mutant)
T7 chain: T2 chain with Y221L, S223Q, N251E

T8: fHbp m001531 (Neisseria meningitidis, fHbp …, point mutant)
T8 chain: T2 chain with Y221L, S223Q, N251V, S252A

T9: fHbp m001607 (Neisseria meningitidis, fHbp …, point mutant)
T9 chain: T2 chain with Y221L, S252G

B1: chimeric antibody h12C1 (antibody, V domains shown)
VH: QVQLQESGPELVKPGASVKISCKASGYSFSDYNMSWVKQSNGKSLEWIGIIDPKYGTINYNQKFKGKATLTVDQASSTAYMQLNSLTSEDSAVYYCVRDYYGSSYFDYWGQGTTLTVSS
VL: DIVLTQSPSSIYASLGERVTLTCKASQDIHNYLNWFQQKPGKSPKTLIYRANRLVDGVPSRFSGGGSGQDYSLTISSLEFEDIGIYYCLQYDEFPPTFGGGTRLEIK
notes: also called humanized 12C1; source: Expi293, purified (MabSelect SuRe, SEC); copies: 2 + 2
B2: mAb 1E6 (human) (antibody, V domains shown)
VH: EVQLVQSGAEVKKPGSSVKVSCKASGGTVIDYPITWVRQAPGQGLEWVGGFVPLFRTSNYGQKFQGRVTITADKSTSTASMELNSLTSEDTAIYYCARGDTAMGPFDYWGQGTLVTVSS
VL: SYVLTQPPSLSVAPGKTATLTCGGNNIAGKTVHWYQQRPGQAPVLVISYDSDRPSGIPERFSGSNSANTATLTISRVEAGDEADYYCQVWDRNSDHWVFGGGTKLTVL
notes: source: Expi293, purified (MabSelect SuRe, SEC); copies: 2 + 2

Assays:
Assay in all cases: BLI
Conditions in all cases: both partners purified
fHbp m001690 = target: T1, fHbp m001690
fHbp m002336 = target: T2, fHbp m002336
fHbp m002404 = target: T3, fHbp m002404
fHbp m002419 = target: T4, fHbp m002419
fHbp m001180 = target: T5, fHbp m001180
fHbp m001199 = target: T6, fHbp m001199
fHbp m001524 = target: T7, fHbp m001524
fHbp m001531 = target: T8, fHbp m001531
fHbp m001607 = target: T9, fHbp m001607

Row | Binder | Kd (fHbp m001690) | koff (fHbp m001690) | kon (fHbp m001690) | Kd (fHbp m002336) | koff (fHbp m002336) | kon (fHbp m002336) | Kd (fHbp m002404) | koff (fHbp m002404) | kon (fHbp m002404) | Kd (fHbp m002419) | koff (fHbp m002419) | kon (fHbp m002419) | Kd (fHbp m001180) | koff (fHbp m001180) | kon (fHbp m001180) | Kd (fHbp m001199) | koff (fHbp m001199) | kon (fHbp m001199) | Kd (fHbp m001524) | koff (fHbp m001524) | also measured
1 | B1 | 0.525 nM | 0.000185 s⁻¹ | 351700 ± 1560 M⁻¹ s⁻¹ | 47.1 nM | 0.01231 ± 0.000116 s⁻¹ | 261000 ± 9540 M⁻¹ s⁻¹ | 125 nM | 0.01534 ± 0.000107 s⁻¹ | 123000 ± 5460 M⁻¹ s⁻¹ | 0.237 nM | 3.39e-05 s⁻¹ | 143000 ± 1520 M⁻¹ s⁻¹ | 69.9 nM | 0.0158 s⁻¹ | 227000 ± 3250 M⁻¹ s⁻¹ | 25.1 nM | 0.0095 s⁻¹ | 378900 ± 3300 M⁻¹ s⁻¹ | 0.701 nM | 0.000117 s⁻¹ | kon (fHbp m001524): 167000 ± 1950 M⁻¹ s⁻¹; Kd (fHbp m001531): 0.717 nM; koff (fHbp m001531): 0.00022 s⁻¹; kon (fHbp m001531): 307400 ± 2940 M⁻¹ s⁻¹; Kd (fHbp m001607): 32.9 nM; koff (fHbp m001607): 0.012 s⁻¹; kon (fHbp m001607): 366000 ± 13300 M⁻¹ s⁻¹
2 | B2 | 0.678 nM | 0.000298 s⁻¹ | 438900 ± 1790 M⁻¹ s⁻¹ | < 0.001 nM | < 1e-07 s⁻¹ | 676300 ± 4120 M⁻¹ s⁻¹ | 0.429 nM | 0.000144 s⁻¹ | 336700 ± 1540 M⁻¹ s⁻¹ | 0.191 nM | 5.3e-05 s⁻¹ | 277200 ± 2090 M⁻¹ s⁻¹ | 0.574 nM | 0.000278 s⁻¹ | 485200 ± 1980 M⁻¹ s⁻¹ | 0.329 nM | 0.000132 s⁻¹ | 400500 ± 3250 M⁻¹ s⁻¹ | 0.742 nM | 0.000167 s⁻¹ | kon (fHbp m001524): 224700 ± 1680 M⁻¹ s⁻¹; Kd (fHbp m001531): 0.546 nM; koff (fHbp m001531): 0.0002 s⁻¹; kon (fHbp m001531): 367300 ± 1990 M⁻¹ s⁻¹; Kd (fHbp m001607): 0.242 nM; koff (fHbp m001607): 0.000117 s⁻¹; kon (fHbp m001607): 484000 ± 5230 M⁻¹ s⁻¹
